Assay results as given in US20230241185A1, “COMPOSITION COMPRISING A DNA-DEGRADING ENZYME FOR USE IN A METHOD FOR THE TREATMENT OF IMMUNOSUPPRESSION AFTER ACUTE TISSUE INJURY” (Klinikum der Universität München, priority 2020, published 2023).
Entries after “also recorded” stand apart in the source; their conditions may differ.

Legend:
splenic B cells = assay: Splenic B cell counts by FACS after experimental stroke; type: in vivo, mice; details: hrDNase 1000 U vs control; 18 h after stroke; normalized to sham
Excerpt: (§1) Mice were anaesthetized with isoflurane delivered in a mixture of 30% O2 and 70% N2O. An incision was made between the ear and the eye in order to expose the temporal bone. Mice were placed in supine position, and a laser Doppler probe was affixed to the skull above the middle cerebral artery (MCA) territory. The common carotid artery and left external carotid artery were exposed via midline incision and further isolated and ligated. […] Lack of brain ischemia as quantified post-mortem by histological analysis. […]
(§2) The anti-mouse antibodies listed below (see Table 1) were used for surface marker staining of CD45^+ leukocytes, CD45^+CD11b^+ monocytes (+FasL^+ expression), CD3^+ T cells, CD3^+CD4^+ Thelper cells, CD3^+CD8^+ Tcytotox cells and CD19^+ B cells (for representative gating strategy, see FIG. 10A). […] Flow cytometric data was acquired using a BD FACSverse flow cytometer (BD Biosciences) and analyzed using FlowJo software (Treestar).

cf-dsDNA = assay: Cell-free dsDNA quantification in serum/plasma after stroke; type: in vivo, mice; details: hrDNase 1000 U vs vehicle, 6 h after stroke or sham surgery
Excerpt: as §1
Cell-free nucleic acids (RNA, single strand (ss) DNA and double strand (ds) DNA) levels in the plasma of mice and human patients was assessed with a Qubit 2.0 fluorometer (Invitrogen) using specific fluorescent dyes which bind either ssDNA (ssDNA Assay Kit, Thermo Fisher Scientific) or dsDNA (HS dsDNA Assay kit, Thermo Fisher Scientific). […]

IL-1β = IL-1β concentration in post-stroke serum treated ex vivo ±hrDNase; set-up: species or system mice; details: ex vivo treatment of post-stroke mouse serum ±hrDNase
Protocol: Total IL-1β and caspase-1 levels from patient plasma samples (diluted 1:10 in sterile PBS) were obtained using commercial assay kits according to the manufacturers instructions (Quantikine ELISA human IL-1β, Quantikine ELISA human caspase-1 R&D systems). Total IL-1β and IL-18 levels from murine plasma samples were measured using the Duoset ELISA IL-1β and the Duoset ELISA IL-18 kit according to the manufacturer's instructions (R&D systems).

splenic CD3^+ T cells = assay: Splenic T cell counts by FACS after experimental stroke; type: in vivo, mice; details: hrDNase 1000 U 1 hour after surgery vs vehicle; experimental stroke; normalized to sham
Excerpt: (§3) Mice were anaesthetized with isoflurane delivered in a mixture of 30% O2 and 70% N2O. An incision was made between the ear and the eye in order to expose the temporal bone. Mice were placed in supine position, and a laser Doppler probe was affixed to the skull above the middle cerebral artery (MCA) territory. The common carotid artery and left external carotid artery were exposed via midline incision and further isolated and ligated. A 2-mm silicon-coated filament (Doccol) was inserted into the internal carotid artery, advanced gently to the MCA until resistance was felt, and occlusion was confirmed by a corresponding decrease in blood flow (i.e., a decrease in the laser Doppler flow signal by 80%. After 60 minutes of occlusion, the animals were re-anesthetized, and the filament was removed. After recovery, the mice were kept in their home cage with ad libitum access to water and food. Sham-operated mice received the same surgical procedure, but the filament was […] in lieu of being advanced to the MCA. Body temperature was maintained at 37° C. throughout surgery in all mice via feedback-controlled heating pad. The overall mortality rate of animals subjected to MCA occlusion was approximately 20%. All animals in the sham group survived the procedure. Exclusion criteria: 1. Insufficient MCA occlusion (a reduction in blood flow to […] of the baseline value). 2. Death during the surgery. 3. Lack of brain ischemia as quantified post-mortem by histological analysis.
Anti-IL1β: Mice received two injections of antagonizing anti-IL-1β in sterile saline (clone: B122, InVivoMab, BioXcell, US), 1 hour prior to and 1 hour after surgery. Anti-IL-1β or the corresponding IgG control (Armenian hamster IgG, InVivoMab, BioXcell, US) was injected i.p. at a dose of 4 mg kg^−1 body weight in a final volume of 200 μl.
Anti-FasL: Mice received two injections of antagonizing anti-FasL in sterile saline (clone: MFL3, InVivoMab, BioXcell, US), 1 hour prior to and 1 hour after surgery. […]

[1] = test system: caspase-1 activity in splenic CD11b^+ monocytes; assay: FAM FLICA flow cytometry of caspase-1 activity (inflammasome activation) in splenic monocytes after stroke; type: in vivo, mice; details: hrDNase 1000 U 1 hour after surgery vs vehicle; experimental stroke; splenic monocytes
Excerpt: as §3
Human recombinant DNase (hrDNase): 1000 U of human recombinant DNase (Roche, Switzerland) dissolved in incubation 1× buffer (40 mM Tris-HCl, 10 mM NaCl, 6 mM MgCl2, 1 mM CaCl2, pH 7.9, diluted in PBS, Roche) was injected i.v. in the tail vein 1 hour after surgery in a final volume of 100 μl. The control group was administered vehicle injections at the same volume, route, and timing as experimental animals.
Caspase-8 inhibitor (Z-IETD-FMK) & Caspase-9 inhibitor (Z-LEHD-FMK): The apoptosis inhibitors Z-IETD-FMK and Z-LEHD-FMK (R&D systems, US) in DMSO dissolved in PBS and injected i.p. 30 minutes after surgery. Z-LEHD-FMK was injected at a dose of […] body weight at a final volume of 200 μl. Z-IETD-FMK was injected at a dose of 0.8 mg kg^−1 body weight at a final volume of 100 μl. The control groups were administered vehicle injections at the same volume, route, and timing as experimental animals.
To detect the active forms of caspase-1 in blood, spleen, and bone marrow samples, cell suspensions were stained with the fluorescent inhibitor probe FAM-YVAD-FMK (FAM FLICA, BioRad, Germany) for 30 minutes at 37° C. according to the manufacturer's instructions. After washing, the cells were stained for CD45^+CD3^+ T cells and CD45^+Cd11b^+ monocytes. The flow cytometry data was acquired on a BD FACSVerse (for representative gating strategy, see FIG. 10B).

FasL on BMDMs = assay: BMDMs stimulated with post-stroke serum (±hrDNase), FasL expression by FACS; type: cell-based, mice; details: BMDMs stimulated 10 minutes with post-stroke serum ±hrDNase; FasL 10 and 60 minutes after
Excerpt: Control-treated BMDMs received only FBS-containing culture media. […] Stimulation by secreted factors (left), and 2. Cell-cell contact (right).

[2] = test system: FasL on CD11b^+ monocytes; assay: FasL expression on splenic CD11b+ monocytes by FACS after stroke; type: in vivo, mice; details: hrDNase 1000 U after stroke vs control
Excerpt: as §1, §2

B1: hrDNase: Human recombinant DNase (Roche, Switzerland), DNA-degrading enzyme (protein, UniProt P24855 23-282, looked up)
Deoxyribonuclease-1: LKIAAFNIQTFGETKMSNATLVSYIVQILSRYDIALVQEVRDSHLTAVGKLLDNLNQDAPDTYHYVVSEPLGRNSYKERYLFVYRPDQVSAVDSYYYDDGCEPCGNDTFNREPAIVRFFSRFTEVREFAIVPLHAAPGDAVAEIDALYDVYLDVQEKWGLEDVMLMGDFNAGCSYVRPSQWSSIRLWTSPTFQWLIPDSADTTATPTHCAYDRIVVAGMLLRGAVVPDSALPFNFQAAYGLSDQLAQAISDHYPVEVMLK
splenic B cell survival (splenic B cells): improved B cell survival after experimental stroke | serum dsDNA (cf-dsDNA) concentration (cf-dsDNA): reduction of cf-dsDNA blood concentrations; also recorded: decrease cf-dsDNA concentration in plasma; also recorded: decrease of serum dsDNA concentration in mice receiving hrDNase treatment after stroke to levels of sham-operated mice | serum dsDNA (cf-dsDNA) concentration (cf-dsDNA; listed as human recombinant DNAse): efficient degradation of cf-dsDNA | IL-1β concentration of post-stroke serum (IL-1β): IL-1β concentrations did not differ between the two stroke serum groups | IL-1β concentration of post-stroke serum (IL-1β; listed as hrDNAse): did not affect the serum concentration of IL-1β | splenic T cell counts / T cell survival (splenic CD3^+ T cells): improved T cell survival after experimental stroke; also recorded: increased splenic T cell counts | monocyte inflammasome activation (caspase-1 probe FAM-FLICA) [1]: substantially reduced inflammasome activation in splenic monocytes; also recorded: decrease cf-dsDNA concentration in plasma and inflammasome activation in monocytes; also recorded: significantly reduced monocyte inflammasome activation | FasL upregulation on serum-stimulated monocytes (BMDMs) (FasL on BMDMs): completely prevented the FasL upregulation on serum-stimulated monocytes | FasL expression on monocytes / FasL+ myeloid cell population [2]: prevented the expansion of FasL+myeloid cell population; also recorded: reduced FasL expression on monocytes
